In this assay the target is T1, human Desmoglein 2 (Dsg2) (human, UniProt Q14126 50-1118).
T1 construct: whole, on cells; Endogenous protein; In flow cytometry it stood on the surface of H1, H9 and iPSC cells; In immunoprecipitation and Western blotting it came from lysate of (surface-biotinylated) H9 cells, with bands of 165 kDa or 100 kDa
T1 sequence (looked up): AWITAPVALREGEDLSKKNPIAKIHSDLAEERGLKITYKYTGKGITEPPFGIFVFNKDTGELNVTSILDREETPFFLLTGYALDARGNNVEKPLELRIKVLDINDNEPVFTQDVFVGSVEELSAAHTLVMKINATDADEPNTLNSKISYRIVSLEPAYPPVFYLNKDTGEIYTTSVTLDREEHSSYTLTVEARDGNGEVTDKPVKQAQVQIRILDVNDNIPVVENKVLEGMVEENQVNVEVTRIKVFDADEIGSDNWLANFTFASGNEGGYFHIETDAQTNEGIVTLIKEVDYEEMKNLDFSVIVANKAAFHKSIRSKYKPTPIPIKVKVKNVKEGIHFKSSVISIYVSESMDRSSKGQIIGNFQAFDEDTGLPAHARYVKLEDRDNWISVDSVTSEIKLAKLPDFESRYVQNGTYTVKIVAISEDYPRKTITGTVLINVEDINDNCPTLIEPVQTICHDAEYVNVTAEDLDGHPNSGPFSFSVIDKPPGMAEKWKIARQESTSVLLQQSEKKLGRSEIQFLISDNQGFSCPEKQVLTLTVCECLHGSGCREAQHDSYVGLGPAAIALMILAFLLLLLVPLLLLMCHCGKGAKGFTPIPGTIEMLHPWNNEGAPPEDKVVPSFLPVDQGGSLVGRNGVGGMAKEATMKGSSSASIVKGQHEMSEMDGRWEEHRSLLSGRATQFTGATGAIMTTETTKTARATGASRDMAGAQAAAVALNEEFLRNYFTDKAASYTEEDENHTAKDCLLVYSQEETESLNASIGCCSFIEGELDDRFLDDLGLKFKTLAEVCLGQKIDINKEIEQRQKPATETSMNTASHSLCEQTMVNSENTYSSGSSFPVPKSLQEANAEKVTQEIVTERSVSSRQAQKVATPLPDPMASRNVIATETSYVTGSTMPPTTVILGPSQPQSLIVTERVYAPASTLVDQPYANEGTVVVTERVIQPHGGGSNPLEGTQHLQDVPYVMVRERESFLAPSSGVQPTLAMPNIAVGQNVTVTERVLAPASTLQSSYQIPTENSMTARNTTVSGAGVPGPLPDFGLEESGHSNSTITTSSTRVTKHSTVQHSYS
The assay can be described thus: flow cytometry, fluorescence staining of H1, H9 and iPSC cells (endogenous Dsg2 on the surface). How it is done: Among those clones prepared in Example 2, the hybridoma clone which secreted the antibody comparatively stably was selected and the binding capacity to human pluripotent stem cells was investigated. Particularly, the cultured human pluripotent stem cells were separated by using collagenase IV. The cells were treated with cell separation buffer (GIBCO) for 20 minutes at 37° C., leading to the separation of the cells as single cells. The cells were passed through 40 μm strainer, and 2×10⁵ cells proceeded to flow cytometry. The human pluripotent stem cells prepared as single cells were suspended in PBA (1% BSA was dissolved in PBS), followed by reaction with the antibody supernatant at 4° C. for 30 minutes. Centrifugation was performed at 4° C. at 1200 rpm for 5 minutes and 100 μl of the supernatant was eliminated. The anti-mouse Ig-FITC (BD) was diluted (1:200). […]
To investigate the binding capacity of the antibody 6-1 purified in Example <3-2> to human pluripotent stem cells, fluorescence staining was performed by the same manner as described in Example <3-1> (FIG. 2A). […] In FIG. 2A, the blue line illustrates the fluorescence staining of human pluripotent stem cells with the monoclonal antibody 6-1, wherein the antibody 6-1 bound to all of those three kinds of human pluripotent stem cells.
Background: Flow cytometry measures light scatter and fluorescence of single cells or particles in a stream.

B1: monoclonal antibody 6-1 (antibody, V domains shown)
VH: QVKLQESGPELVRPGESVKISCKGSGYTFTDYAMHWVKQSPAKTLEWLGVISIYYDNTNYNQKFKGKATLTVDKSSSTAYMELARLTSEDSAIYYCAREGDYFALDYWGQGTSVTVSS
VL: DIVMTQSPAIMSASPGEKVTMTCSASSSVSYMYWYQQKPGSSPRLLIYDTSNLASGVPVRFSGSGSGTSYSLTISRMEAEDAATYYCQQWSSFPLTFGAGTKLELKR
notes: Mouse monoclonal antibody from hybridoma 6-1 (Balb/c mouse immunised with H9 cells, fused with NS1 myeloma); Purified from ascites on protein G-sepharose; hybridoma supernatant was used for screening; They were cloned with an IgG1 constant region primer and a kappa chain constant region primer
As to B1, the binding result is listed as “binds”.

(Values after patent US20160097096A1 (KOREA RESEARCH INSTITUTE OF BIOSCIENCE AND BIOTECHNOLOGY, published 2016).)
